Measurements from the FLAb antibody collection (doi:10.1101/2023.12.08.570889).

Molecular target: TSLP, Q969D9
Experiment: Kd (SPR)

B1: unnamed (protein)
chain 1: QMQLVESGGGVVQPGRSLRLSCAASGFTFRTYGMHWVRQAPGKGLEWVAVIWYDGSNKHYADSVKGRFTITRDNSKNTLNLQMNSLRAEDTAVYYCARAPRYDEHWEAFDVWGQGTMVTVSS
chain 2: SYVLTQPPSVSVAPGQTARITCGGNNLGSKSVHWYQQKPGQAPVLVVYDDSDRPSWIPERFSGSNSGNTATLTISRGEAGDEADYYCQVWDSSSDHVVFGGGTKLTVL
Q: For B1, which Kd is on record?
A: 170 nM

B2: unnamed (protein)
chain 1: QMQLVESGGGVVQPGRSLRLSCAASGFTFSTYAMHWVRQAPGKGLEWVAVIWYDGSNKHYADSVKGRFTITRDNSKNTLNLQMNSLRAEDTAVYYCARAPRYDERYEAFDVWGQGTMVTVSS
chain 2: SYVLTQPPSVSVAPGQTARITCGGNNLGSKSVHWYQQKPGQAPVLVVYDDSDRPSWIPERFSGSNSGNTATLTISRGEAGDEADYYCQVWDSSSDHVVFGGGTKLTVL
Q: B2 was tested. Which Kd did it give?
A: 686 nM

B3: unnamed (protein)
chain 1: QMQLVESGGGVVQPGRSLRLSCAASGFTFSTYAMHWVRQAPGKGLEWVAVIWYDGSNKHYADSVKGRFTITRDNSKNTLNLQMNSLRAEDTAVYYCARAPRYDEYWEAFDVWGQGTMVTVSS
chain 2: SYVLTQPPSVSVAPGQTARITCGGNNLGSKSVHWYQQKPGQAPVLVVYDDSDRPSWIPERFSGSNSGNTATLTISRGEAGDEADYYCQVWDSSSDHVVFGGGTKLTVL
Q: Which Kd does the source give for B3 here?
A: 633 nM

B4: unnamed (protein)
chain 1: QMQLVESGGGVVQPGRSLRLSCAASGFTFRTYGMHWVRQAPGKGLEWVAVIWYDGSNKHYADSVKGRFTITRDNSKNTLNLQMNSLRAEDTAVYYCARAPRYYYYYEAFDVWGQGTMVTVSS
chain 2: SYVLTQPPSVSVAPGQTARITCGGNNLGSKSVHWYQQKPGQAPVLVVYDDSDRPSWIPERFSGSNSGNTATLTISRGEAGDEADYYCQVWDSSSDHVVFGGGTKLTVL
Q: With B4 as the binder, how does the Kd read?
A: 52.3 nM

B5: unnamed (protein)
chain 1: QMQLVESGGGVVQPGRSLRLSCAASGFTFSTYAMHWVRQAPGKGLEWVAVIWYDGSNKHYADSVKGRFTITRDNSKNTLNLQMNSLRAEDTAVYYCARAPRYYWYYEAFDVWGQGTMVTVSS
chain 2: SYVLTQPPSVSVAPGQTARITCGGNNLGSKSVHWYQQKPGQAPVLVVYDDSDRPSWIPERFSGSNSGNTATLTISRGEAGDEADYYCQVWDSSSDHVVFGGGTKLTVL
Q: For B5, which Kd is on record?
A: 87.1 nM

B6: unnamed (protein)
chain 1: QMQLVESGGGVVQPGRSLRLSCAASGFTFRTYGMHWVRQAPGKGLEWVAVIWYDGSNKHYADSVKGRFTITRDNSKNTLNLQMNSLRAEDTAVYYCARAPRYDDLWEAFDVWGQGTMVTVSS
chain 2: SYVLTQPPSVSVAPGQTARITCGGNNLGSKSVHWYQQKPGQAPVLVVYDDSDRPSWIPERFSGSNSGNTATLTISRGEAGDEADYYCQVWDSSSDHVVFGGGTKLTVL
Q: With B6 as the binder, how does the Kd read?
A: 61.1 nM

B7: unnamed (protein)
chain 1: QMQLVESGGGVVQPGRSLRLSCAASGFTFRTYGMHWVRQAPGKGLEWVAVIWYDGSNKHYADSVKGRFTITRDNSKNTLNLQMNSLRAEDTAVYYCARSPRYDDYWEAFDVWGQGTMVTVSS
chain 2: SYVLTQPPSVSVAPGQTARITCGGNNLGSKSVHWYQQKPGQAPVLVVYDDSDRPSWIPERFSGSNSGNTATLTISRGEAGDEADYYCQVWDSSSDHVVFGGGTKLTVL
Q: How did the Kd turn out when B7 was run?
A: 197 nM

B8: unnamed (protein)
chain 1: QMQLVESGGGVVQPGRSLRLSCAASGFTFRTYGMHWVRQAPGKGLEWVAVIWYDGSNKHYADSVKGRFTITRDNSKNTLNLQMNSLRAEDTAVYYCARAPRYDEYLEAFDVWGQGTMVTVSS
chain 2: SYVLTQPPSVSVAPGQTARITCGGNNLGSKSVHWYQQKPGQAPVLVVYDDSDRPSWIPERFSGSNSGNTATLTISRGEAGDEADYYCQVWDSSSDHVVFGGGTKLTVL
Q: How did the Kd turn out when B8 was run?
A: 129 nM

B9: unnamed (protein)
chain 1: QMQLVESGGGVVQPGRSLRLSCAASGFTFSTFAMHWVRQAPGKGLEWVAVIWYDGSNKHYADSVKGRFTITRDNSKNTLNLQMNSLRAEDTAVYYCARAPRYDWYYEAFDVWGQGTMVTVSS
chain 2: SYVLTQPPSVSVAPGQTARITCGGNNLGSKSVHWYQQKPGQAPVLVVYDDSDRPSWIPERFSGSNSGNTATLTISRGEAGDEADYYCQVWDSSSDHVVFGGGTKLTVL
Q: With B9 as the binder, how does the Kd read?
A: 90.8 nM

B10: unnamed (protein)
chain 1: QMQLVESGGGVVQPGRSLRLSCAASGFTFSTYAMHWVRQAPGKGLEWVAVIWYDGSNKHYADSVKGRFTITRDNSKNTLNLQMNSLRAEDTAVYYCARAPRYDDYWEAFDVWGQGTMVTVSS
chain 2: SYVLTQPPSVSVAPGQTARITCGGNNLGSKSVHWYQQKPGQAPVLVVYDDSDRPSWIPERFSGSNSGNTATLTISRGEAGDEADYYCQVWDSSSDHVVFGGGTKLTVL
Q: For B10, which Kd is on record?
A: 718 nM

B11: unnamed (protein)
chain 1: QMQLVESGGGVVQPGRSLRLSCAASGFTFSTFAMHWVRQAPGKGLEWVAVIWYDGSNKHYADSVKGRFTITRDNSKNTLNLQMNSLRAEDTAVYYCARAPRYDERYEAFDVWGQGTMVTVSS
chain 2: SYVLTQPPSVSVAPGQTARITCGGNNLGSKSVHWYQQKPGQAPVLVVYDDSDRPSWIPERFSGSNSGNTATLTISRGEAGDEADYYCQVWDSSSDHVVFGGGTKLTVL
Q: How did the Kd turn out when B11 was run?
A: 366 nM

B12: unnamed (protein)
chain 1: QMQLVESGGGVVQPGRSLRLSCAASGFTFRTYGMHWVRQAPGKGLEWVAVIWYDGSNKHYADSVKGRFTITRDNSKNTLNLQMNSLRAEDTAVYYCARAPRYDDYVEAFDVWGQGTMVTVSS
chain 2: SYVLTQPPSVSVAPGQTARITCGGNNLGSKSVHWYQQKPGQAPVLVVYDDSDRPSWIPERFSGSNSGNTATLTISRGEAGDEADYYCQVWDSSSDHVVFGGGTKLTVL
Q: How did the Kd turn out when B12 was run?
A: 44.6 nM

B13: unnamed (protein)
chain 1: QMQLVESGGGVVQPGRSLRLSCAASGFTFSTFAMHWVRQAPGKGLEWVAVIWYDGSNKHYADSVKGRFTITRDNSKNTLNLQMNSLRAEDTAVYYCARAPRYYWYYEAFDVWGQGTMVTVSS
chain 2: SYVLTQPPSVSVAPGQTARITCGGNNLGSKSVHWYQQKPGQAPVLVVYDDSDRPSWIPERFSGSNSGNTATLTISRGEAGDEADYYCQVWDSSSDHVVFGGGTKLTVL
Q: For B13, which Kd is on record?
A: 96.6 nM

B14: unnamed (protein)
chain 1: QMQLVESGGGVVQPGRSLRLSCAASGFTFSTFAMHWVRQAPGKGLEWVAVIWYDGSNKHYADSVKGRFTITRDNSKNTLNLQMNSLRAEDTAVYYCARAPRYYDYYEAFDVWGQGTMVTVSS
chain 2: SYVLTQPPSVSVAPGQTARITCGGNNLGSKSVHWYQQKPGQAPVLVVYDDSDRPSWIPERFSGSNSGNTATLTISRGEAGDEADYYCQVWDSSSDHVVFGGGTKLTVL
Q: With B14 as the binder, how does the Kd read?
A: 56.8 nM

B15: unnamed (protein)
chain 1: QMQLVESGGGVVQPGRSLRLSCAASGFTFSTFAMHWVRQAPGKGLEWVAVIWYDGSNKHYADSVKGRFTITRDNSKNTLNLQMNSLRAEDTAVYYCARSPRYYEYYEAFDVWGQGTMVTVSS
chain 2: SYVLTQPPSVSVAPGQTARITCGGNNLGSKSVHWYQQKPGQAPVLVVYDDSDRPSWIPERFSGSNSGNTATLTISRGEAGDEADYYCQVWDSSSDHVVFGGGTKLTVL
Q: Which Kd does the source give for B15 here?
A: 44.5 nM

B16: unnamed (protein)
chain 1: QMQLVESGGGVVQPGRSLRLSCAASGFTFSTFAMHWVRQAPGKGLEWVAVIWYDGSNKHYADSVKGRFTITRDNSKNTLNLQMNSLRAEDTAVYYCARAPRYDEDWEAFDVWGQGTMVTVSS
chain 2: SYVLTQPPSVSVAPGQTARITCGGNNLGSKSVHWYQQKPGQAPVLVVYDDSDRPSWIPERFSGSNSGNTATLTISRGEAGDEADYYCQVWDSSSDHVVFGGGTKLTVL
Q: With B16 as the binder, how does the Kd read?
A: 894 nM

B17: unnamed (protein)
chain 1: QMQLVESGGGVVQPGRSLRLSCAASGFTFSTYAMHWVRQAPGKGLEWVAVIWYDGSNKHYADSVKGRFTITRDNSKNTLNLQMNSLRAEDTAVYYCARSPRYDEYWEAFDVWGQGTMVTVSS
chain 2: SYVLTQPPSVSVAPGQTARITCGGNNLGSKSVHWYQQKPGQAPVLVVYDDSDRPSWIPERFSGSNSGNTATLTISRGEAGDEADYYCQVWDSSSDHVVFGGGTKLTVL
Q: How did the Kd turn out when B17 was run?
A: 836 nM

B18: unnamed (protein)
chain 1: QMQLVESGGGVVQPGRSLRLSCAASGFTFSTFAMHWVRQAPGKGLEWVAVIWYDGSNKHYADSVKGRFTITRDNSKNTLNLQMNSLRAEDTAVYYCARAPRYYDYLEAFDVWGQGTMVTVSS
chain 2: SYVLTQPPSVSVAPGQTARITCGGNNLGSKSVHWYQQKPGQAPVLVVYDDSDRPSWIPERFSGSNSGNTATLTISRGEAGDEADYYCQVWDSSSDHVVFGGGTKLTVL
Q: Which Kd does the source give for B18 here?
A: 62.6 nM

B19: unnamed (protein)
chain 1: QMQLVESGGGVVQPGRSLRLSCAASGFTFSTYAMHWVRQAPGKGLEWVAVIWYDGSNKHYADSVKGRFTITRDNSKNTLNLQMNSLRAEDTAVYYCARAPRYDWYWEAFDVWGQGTMVTVSS
chain 2: SYVLTQPPSVSVAPGQTARITCGGNNLGSKSVHWYQQKPGQAPVLVVYDDSDRPSWIPERFSGSNSGNTATLTISRGEAGDEADYYCQVWDSSSDHVVFGGGTKLTVL
Q: How did the Kd turn out when B19 was run?
A: 759 nM
